Results on 3 compounds are retold here after publication PMC8988006, “Structural and biochemical characterization of the prenylated flavin mononucleotide-dependent indole-3-carboxylic acid decarboxylase” (The Journal of Biological Chemistry, 2022).

Data set [1] concerns the target indole-3-carboxylate decarboxylase from Arthrobacter nicotianae (Arthrobacter nicotianae). Description: SAXS; HPLC SAXS (Shodex KW-403 column, 0.15 ml/min) on beamline B21, Diamond Light Source; ab initio envelope (DAMMIN/DAMAVER) with the hexamer crystal structure superimposed.
Data set [2] has the same target. Description: crystal structure; AnInD at ca 15 mg/ml, sitting drop vapor diffusion, PACT screen condition G5, 20 °C; crystals soaked with prFMN; space group P2_(1); whole hexamer in the asymmetric unit.
The test system of a further data set is T1, O=C(O)c1c[nH]c2ccccc12.
T1 construct: His6-tagged (C-terminal in pET30a or N-terminal in pET28a), E. coli BL21(DE3), Ni-NTA, ~50 kDa by SDS-PAGE, hexamer, reconstituted with prFMN and Mn2+
Put plainly: purified protein. In kind it is biochemical, Glutamicibacter nicotianae. The following applies: prFMN-reconstituted enzyme, Mn2+, 50 mM potassium phosphate pH 6.5, 50 mM KCl, room temperature, apparent because active enzyme (prFMN) content is unknown.

Data set [3] deals with T2, SrCAR (Seginiliparous rugosus carboxylic acid reductase) (Segniliparus rugosus, UniProt E5XP76).
T2 construct: gene car
T2 sequence (E5XP76 1-1188): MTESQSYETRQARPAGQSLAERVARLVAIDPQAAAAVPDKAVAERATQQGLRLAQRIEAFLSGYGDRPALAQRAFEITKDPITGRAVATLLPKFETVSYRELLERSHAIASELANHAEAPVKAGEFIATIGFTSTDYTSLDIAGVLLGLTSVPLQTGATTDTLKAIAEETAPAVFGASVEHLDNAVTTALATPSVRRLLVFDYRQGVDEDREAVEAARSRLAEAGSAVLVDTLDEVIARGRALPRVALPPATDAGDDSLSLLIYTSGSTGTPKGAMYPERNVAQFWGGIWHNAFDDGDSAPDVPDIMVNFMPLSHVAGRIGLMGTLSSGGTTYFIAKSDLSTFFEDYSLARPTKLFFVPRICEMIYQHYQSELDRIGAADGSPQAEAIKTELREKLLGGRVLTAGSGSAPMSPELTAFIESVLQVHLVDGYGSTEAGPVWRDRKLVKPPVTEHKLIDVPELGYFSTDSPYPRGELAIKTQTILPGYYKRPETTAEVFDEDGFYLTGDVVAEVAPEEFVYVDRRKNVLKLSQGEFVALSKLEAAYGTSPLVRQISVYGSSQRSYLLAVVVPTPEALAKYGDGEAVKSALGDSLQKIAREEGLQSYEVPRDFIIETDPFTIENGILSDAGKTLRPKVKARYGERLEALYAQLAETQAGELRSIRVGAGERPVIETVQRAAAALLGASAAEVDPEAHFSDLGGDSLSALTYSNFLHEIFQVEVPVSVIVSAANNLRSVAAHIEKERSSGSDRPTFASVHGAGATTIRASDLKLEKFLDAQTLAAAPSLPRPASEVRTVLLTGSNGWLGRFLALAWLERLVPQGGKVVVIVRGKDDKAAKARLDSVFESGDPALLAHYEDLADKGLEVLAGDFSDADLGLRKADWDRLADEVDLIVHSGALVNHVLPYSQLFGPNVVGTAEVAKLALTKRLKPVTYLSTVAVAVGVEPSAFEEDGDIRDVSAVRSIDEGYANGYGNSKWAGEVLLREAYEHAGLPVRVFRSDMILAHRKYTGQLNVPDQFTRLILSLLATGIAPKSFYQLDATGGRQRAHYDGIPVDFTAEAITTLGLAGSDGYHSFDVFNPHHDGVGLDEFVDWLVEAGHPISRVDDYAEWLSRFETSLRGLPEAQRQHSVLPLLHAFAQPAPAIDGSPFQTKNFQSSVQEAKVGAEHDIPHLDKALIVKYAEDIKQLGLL
Put plainly: one-pot cascade with AnInD, HPLC. It is filed as biochemical. The following applies: I3C formed in situ from indole + NaHCO3 by AnInD; ATP, NADPH, Mn2+, Mg2+; potassium phosphate, 30 °C.

Data set [4] addresses T3, AnInD (indole-3-carboxylic acid decarboxylase) (Glutamicibacter nicotianae, UniProt Z9P359VB74, D169A).
T3 construct: His6-tagged (C-terminal in pET30a or N-terminal in pET28a), E. coli BL21(DE3), Ni-NTA, ~50 kDa by SDS-PAGE, hexamer, reconstituted with prFMN and Mn2+
T3 sequence (Z9P359VB74 2-461 D169A): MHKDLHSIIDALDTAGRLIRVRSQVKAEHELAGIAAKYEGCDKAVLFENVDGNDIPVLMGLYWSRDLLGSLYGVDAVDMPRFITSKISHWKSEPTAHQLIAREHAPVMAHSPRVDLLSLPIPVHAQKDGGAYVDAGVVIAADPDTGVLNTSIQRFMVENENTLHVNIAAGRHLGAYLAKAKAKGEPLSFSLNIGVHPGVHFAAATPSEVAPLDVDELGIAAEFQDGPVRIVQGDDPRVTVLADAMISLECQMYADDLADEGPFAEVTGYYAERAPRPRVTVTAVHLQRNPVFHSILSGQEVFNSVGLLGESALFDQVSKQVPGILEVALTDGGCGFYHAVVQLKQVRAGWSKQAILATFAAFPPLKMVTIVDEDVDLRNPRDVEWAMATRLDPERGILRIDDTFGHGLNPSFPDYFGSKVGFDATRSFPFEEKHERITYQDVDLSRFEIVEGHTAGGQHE
Description: end point HPLC decarboxylation assay. In kind it is biochemical. The following applies: prFMN-reconstituted; 50 mM potassium phosphate pH 6.5, 10 mM I3C, 2 μM enzyme.

In data set [5] the target is T4, AnInD (indole-3-carboxylic acid decarboxylase) (Glutamicibacter nicotianae, UniProt Z9P359VB74, D169L).
T4 construct: His6-tagged (C-terminal in pET30a or N-terminal in pET28a), E. coli BL21(DE3), Ni-NTA, ~50 kDa by SDS-PAGE, hexamer, reconstituted with prFMN and Mn2+
T4 sequence (Z9P359VB74 2-461 D169L): T3 sequence (Z9P359VB74 2-461 D169A) with A168L
Description: end point HPLC decarboxylation assay. In kind it is biochemical. The following applies: prFMN-reconstituted; 50 mM potassium phosphate pH 6.5, 10 mM I3C, 2 μM enzyme.

Data set [6] deals with T5, AnInD (indole-3-carboxylic acid decarboxylase) (Glutamicibacter nicotianae, UniProt Z9P359VB74, D169V).
T5 construct: His6-tagged (C-terminal in pET30a or N-terminal in pET28a), E. coli BL21(DE3), Ni-NTA, ~50 kDa by SDS-PAGE, hexamer, reconstituted with prFMN and Mn2+
T5 sequence (Z9P359VB74 2-461 D169V): T3 sequence (Z9P359VB74 2-461 D169A) with A168V
Put plainly: end point HPLC decarboxylation assay. The following applies: prFMN-reconstituted; 50 mM potassium phosphate pH 6.5, 10 mM I3C, 2 μM enzyme. In kind it is biochemical.

Positions count from the first letter of the chain named.

Broadly, the stoichiometry N is the number of molecules, sites or subunits per partner or assembly. For “indole-3-carboxylate decarboxylase from Arthrobacter nicotianae (enzyme)”, the stoichiometry N in data set [1] and in data set [2] was 6 throughout.
As usually defined, the Km is the substrate concentration at which the rate is half of its maximum. On to “AnInD (indole-3-carboxylic acid decarboxylase) (Glutamicibacter nicotianae)”, for which, in the data set on O=C(O)c1c[nH]c2ccccc12, the Km came out at 790 µM and the kcat was 4.4 (±0.3) s^−1.
For the compound `O=C(O)c1c[nH]c2ccccc12` [I3C, indole-3-carboxylic acid], the “one-pot cascade with AnInD, HPLC” value in data set [3] is on record as “These assays revealed the formation/production of indole-3-carboxyaldehyde”. For the same compound, the activity entry in data set [4], in data set [5] and in data set [6] was “All AnInD D169X variants were found to be severely affected in activity” throughout.
